Measurements reported in patent US7838231 (REGENTS OF THE UNIVERSITY OF MICHIGAN, dated 2010).

T1: full-length human nephrocystin-5 (NPHP5), yeast two-hybrid fusion (human, UniProt Q15051 1-598)
T1 construct: Full-length NPHP5 cDNA (598 amino acid residues) fused to a GAL4 domain; also called KIAA0036
T1 sequence: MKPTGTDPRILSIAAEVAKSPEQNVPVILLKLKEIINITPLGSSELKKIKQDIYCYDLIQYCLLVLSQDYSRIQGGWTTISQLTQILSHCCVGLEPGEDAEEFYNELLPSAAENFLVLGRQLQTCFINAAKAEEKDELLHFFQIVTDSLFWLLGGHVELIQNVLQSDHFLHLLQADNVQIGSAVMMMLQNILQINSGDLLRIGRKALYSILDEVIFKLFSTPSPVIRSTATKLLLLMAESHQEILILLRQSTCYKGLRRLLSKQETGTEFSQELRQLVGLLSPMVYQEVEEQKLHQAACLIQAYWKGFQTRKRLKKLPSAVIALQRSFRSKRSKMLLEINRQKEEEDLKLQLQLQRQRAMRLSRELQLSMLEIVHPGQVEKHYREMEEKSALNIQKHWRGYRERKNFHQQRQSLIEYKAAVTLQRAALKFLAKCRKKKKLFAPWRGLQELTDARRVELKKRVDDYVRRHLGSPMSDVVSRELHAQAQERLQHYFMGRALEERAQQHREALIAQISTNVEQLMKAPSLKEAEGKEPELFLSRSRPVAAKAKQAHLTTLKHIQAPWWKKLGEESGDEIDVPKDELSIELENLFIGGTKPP


molecular target: T1, full-length human nephrocystin-5 …; experiment: direct yeast two-hybrid assay

Row | Binder | binding result
1 | BBS4, human full length, yeast two-hybrid prey (other, UniProt Q96RK4 1-519, looked up, not shown: large carriers) MAEERVATRTQFPVSTESQKPRQKKAPEFPILEKQNWLIHLHYIRKDYEACKAVIKEQLQETQGLCEYAIYVQALIFRLEGNIQESLELFQTCAVLSPQSADNLKQVARSLFLLGKHKAAIEVYNEAAKLNQKDWEISHNLGVCYIYLKQFNKAQDQLHNALNLNRHDLTYIMLGKIHLLEGDLDKAIEVYKKAVEFSPENTELLTTLGLLYLQLGIYQKAFEHLGNALTYDPTNYKAILAAGSMMQTHGDFDVALTKYRVVACAVPESPPLWNNIGMCFFGKKKYVAAISCLKRANYLAPFDWKILYNLGLVHLTMQQYASAFHFLSAAINFQPKMGELYMLLAVALTNLEDIENAKRAYAEAVHLDKCNPLVNLNYAVLLYNQGEKKNALAQYQEMEKKVSLLKDNSSLEFDSEMVEMAQKLGAALQVGEALVWTKPVKDPKSKHQTTSTSKPASFQQPLGSNQALGQAMSSAAAYRTLPSGAGGTSQFTKPPSLPLEPEPAVESSPTETSEQIREK | no binding
2 | BBS8, human full length, yeast two-hybrid prey (other, UniProt Q8TAM2 1-541, looked up, not shown: large carriers) MSSEMEPLLLAWSYFRRRKFQLCADLCTQMLEKSPYDQEPDPELPVHQAAWILKARALTEMVYIDEIDVDQEGIAEMMLDENAIAQVPRPGTSLKLPGTNQTGGPSQAVRPITQAGRPITGFLRPSTQSGRPGTMEQAIRTPRTAYTARPITSSSGRFVRLGTASMLTSPDGPFINLSRLNLTKYSQKPKLAKALFEYIFHHENDVKTIHLEDVVLHLGIYPFLLRNKNHIEKNALDLAALSTEHSQYKDWWWKVQIGKCYYRLGMYREAEKQFKSALKQQEMVDTFLYLAKVYVSLDQPVTALNLFKQGLDKFPGEVTLLCGIARIYEEMNNMSSAAEYYKEVLKQDNTHVEAIACIGSNHFYSDQPEIALRFYRRLLQMGIYNGQLFNNLGLCCFYAQQYDMTLTSFERALSLAENEEEAADVWYNLGHVAVGIGDTNLAHQCFRLALVNNNNHAEAYNNLAVLEMRKGHVEQARALLQTASSLAPHMYEPHFNFATISDKIGDLQRSYVAAQKSEAAFPDHVDTQHLIKQLRQHFAML | no binding
3 | BBS1, human full length, yeast two-hybrid prey (other, UniProt Q8NFJ9 1-593, looked up, not shown: large carriers) MAAASSSDSDACGAESNEANSKWLDAHYDPMANIHTFSACLALADLHGDGEYKLVVGDLGPGGQQPRLKVLKGPLVMTESPLPALPAAAATFLMEQHEPRTPALALASGPCVYVYKNLRPYFKFSLPQLPPNPLEQDLWNQAKEDRIDPLTLKEMLESIRETAEEPLSIQSLRFLQLELSEMEAFVNQHKSNSIKRQTVITTMTTLKKNLADEDAVSCLVLGTENKELLVLDPEAFTILAKMSLPSVPVFLEVSGQFDVEFRLAAACRNGNIYILRRDSKHPKYCIELSAQPVGLIRVHKVLVVGSTQDSLHGFTHKGKKLWTVQMPAAILTMNLLEQHSRGLQAVMAGLANGEVRIYRDKALLNVIHTPDAVTSLCFGRYGREDNTLIMTTRGGGLIIKILKRTAVFVEGGSEVGPPPAQAMKLNVPRKTRLYVDQTLREREAGTAMHRAFQTDLYLLRLRAARAYLQALESSLSPLSTTAREPLKLHAVVQGLGPTFKLTLHLQNTSTTRPVLGLLVCFLYNEALYSLPRAFFKVPLLVPGLNYPLETFVESLSNKGISDIIKVLVLREGQSAPLLSAHVNMPGSEGLAAA | no binding

Results, then the binder that gave them:

Row | binding result | Binder
4 | no binding | BBS5, human full length, yeast two-hybrid prey (other, UniProt Q8N3I7 1-341, looked up, not shown: large carriers) MSVLDALWEDRDVRFDLSAQQMKTRPGEVLIDCLDSIEDTKGNNGDRGRLLVTNLRILWHSLALSRVNVSVGYNCILNITTRTANSKLRGQTEALYILTKCNSTRFEFIFTNLVPGSPRLFTSVMAVHRAYETSKMYRDFKLRSALIQNKQLRLLPQEHVYDKINGVWNLSSDQGNLGTFFITNVRIVWHANMNDSFNVSIPYLQIRSIKIRDSKFGLALVIESSQQSGGYVLGFKIDPVEKLQESVKEINSLHKVYSASPIFGVDYEMEEKPQPLEALTVEQIQDDVEIDSDGHTDAFVAYFADGNKQQDREPVFSEELGLAIEKLKDGFTLQGLWEVMS
5 | no binding | BBS6, human full length, yeast two-hybrid prey (other, UniProt Q9NPJ1 1-570, looked up, not shown: large carriers) MSRLEAKKPSLCKSEPLTTERVRTTLSVLKRIVTSCYGPSGRLKQLHNGFGGYVCTTSQSSALLSHLLVTHPILKILTASIQNHVSSFSDCGLFTAILCCNLIENVQRLGLTPTTVIRLNKHLLSLCISYLKSETCGCRIPVDFSSTQILLCLVRSILTSKPACMLTRKETEHVSALILRAFLLTIPENAEGHIILGKSLIVPLKGQRVIDSTVLPGILIEMSEVQLMRLLPIKKSTALKVALFCTTLSGDTSDTGEGTVVVSYGVSLENAVLDQLLNLGRQLISDHVDLVLCQKVIHPSLKQFLNMHRIIAIDRIGVTLMEPLTKMTGTQPIGSLGSICPNSYGSVKDVCTAKFGSKHFFHLIPNEATICSLLLCNRNDTAWDELKLTCQTALHVLQLTLKEPWALLGGGCTETHLAAYIRHKTHNDPESILKDDECTQTELQLIAEAFCSALESVVGSLEHDGGEILTDMKYGHLWSVQADSPCVANWPDLLSQCGCGLYNSQEELNWSFLRSTRRPFVPQSCLPHEAVGSASNLTLDCLTAKLSGLQVAVETANLILDLSYVIEDKN
